Earlier results, collected in patent CN114306299A, “贝利司他在制备缓解和/或治疗缺血性脑卒中药物中的应用” (Institute of Materia Medica of CAMS and PUMC, priority 2020, dated 2022).

Test system: stroke (脑卒中)
Details: clinical studies, fraction of patients

B1: t-PA: 美国FDA唯一批准用于治疗脑卒中的药物 (protein, UniProt P00750 36-562, looked up)
Tissue-type plasminogen …: SYQVICRDEKTQMIYQQHQSWLRPVLRSNRVEYCWCNSGRAQCHSVPVKSCSEPRCFNGGTCQQALYFSDFVCQCPEGFAGKCCEIDTRATCYEDQGISYRGTWSTAESGAECTNWNSSALAQKPYSGRRPDAIRLGLGNHNYCRNPDRDSKPWCYVFKAGKYSSEFCSTPACSEGNSDCYFGNGSAYRGTHSLTESGASCLPWNSMILIGKVYTAQNPSAQALGLGKHNYCRNPDGDAKPWCHVLKNRRLTWEYCDVPSCSTCGLRQYSQPQFRIKGGLFADIASHPWQAAIFAKHRRSPGERFLCGGILISSCWILSAAHCFQERFPPHHLTVILGRTYRVVPGEEEQKFEVEKYIVHKEFDDDTYDNDIALLQLKSDSSRCAQESSVVRTVCLPPADLQLPDWTECELSGYGKHEALSPFYSERLKEAHVRLYPSSRCTSQHLLNRTVTDNMLCAGDTRSGGPQANLHDACQGDSGGPLVCLNDGRMTLVGIISWGLGCGQKDVPGVYTKVTNYLDWIRDNMRP
patients in whom treatment is ineffective or condition worsens (after t-PA treatment): 三分之二 | patients in whom t-PA is effective: 三分之一
